± gives the uncertainty stated by the source.
Assay: self-splicing fitness, log relative to wild type (ln ratio); higher = more splicing; Tetrahymena group I intron in knt gene, E. coli kanamycin selection, DiMSum; sequences stand for … in CUCUCU…GGAGGGAAAAGUUAUCAGGCAUGCACCUGGUAGCUAGUCUUUAAACCAAUAGAUUGCAUCGGUUUAAAAGGCAAGACCGUCAAAUUGCGGGAAAGGGGUCAACAGCCGUUCAGUACCAAGUCUCAGGGGAAACUUUGAGAUGGCCUUGCAAAGGGUAUGGUAAUAAGCUGACGGACAUGGUCCUAACCACGCAGCCAAGUCCUAAGUCAACAGAUCUUCUGUUGAUAUGGAUGCAGUUCACAGACUAAAUGUCGGUCGGGGAAGAUGUAUUCUUCUCAUAAGAUAUAGUCGGACCUCUCCUUAAUGGGAGCUAGCGGAUGAAGUGAUGCAACACUGGAGCCGCUGGGAACUAAUUUGUAUGCGAAAGUAUAUUGAUUAGUUUUGGAGUACUCGUGGUCG
Procedure, shortened: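 Six replicate transformations of E. coli BL21(DE3) with a pET-22b(+) library were grown overnight at 37°C or 30°C. The library randomised all eight P1ex-region intron nucleotides, the intron lying in the knt kanamycin-resistance gene, and plates were LB agar with or without 25 μg/mL kanamycin plus 100 μg/mL carbenicillin, 50 μM IPTG and 0.2% rhamnose. Pooled colonies were amplicon-sequenced on an Illumina HiSeq 2500, and fitness is the DiMSum error-weighted combination of wild-type-normalised replicate fold changes, kanamycin versus none.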

Sequence	self-splicing fitness (ln) (30 °C)	self-splicing fitness (ln) (37 °C)
AUACAGCAAUAUUACGUACU	-0.171 ± 0.059	0.38 ± 0.083
AUACAGCAAUAUUACGUAGU	-1.34 ± 0.067	-0.206 ± 0.083
AUACAGCAAUAUUACGUCAA	-2.32 ± 0.15	-1.05 ± 0.1
AUACAGCAAUAUUACGUCCG	-1.75 ± 0.13	-1.38 ± 0.17
AUACAGCAAUAUUACGUCGA	-1.77 ± 0.13	-1.23 ± 0.12
AUACAGCAAUAUUACGUGCU	-3.03 ± 0.15	-1.18 ± 0.12
AUACAGCAAUAUUACGUGUG	-1.73 ± 0.051	-0.977 ± 0.062
AUACAGCAAUAUUACGUUCU	0.212 ± 0.1	-0.221 ± 0.12
AUAGAGCAAUAUUACGAUAU	-0.196 ± 0.065	1.04 ± 0.082
AUAGAGCAAUAUUACGCAAA	-2.79 ± 0.2	-1.03 ± 0.18
AUAGAGCAAUAUUACGCGUU	-1.47 ± 0.12	-0.672 ± 0.13
AUAGAGCAAUAUUACGCUCU	-2.65 ± 0.28	-1.32 ± 0.42
AUAGAGCAAUAUUACGGAUU	-0.783 ± 0.091	-0.15 ± 0.14
AUAGAGCAAUAUUACGGUCG	-1.65 ± 0.18	-1.12 ± 0.23
AUAGAGCAAUAUUACGUACG	-2.22 ± 0.2	-1.53 ± 0.23
AUAGAGCAAUAUUACGUCAC	-1.53 ± 0.22	-0.0932 ± 0.22
AUAGAGCAAUAUUACGUCGC	-2.68 ± 0.2	-0.381 ± 0.18
AUAGAGCAAUAUUACGUCUU	0.446 ± 0.074	0.419 ± 0.087
AUAGAGCAAUAUUACGUUGG	-4.04 ± 0.25	-2.51 ± 0.19
AUAGAGCAAUAUUACGUUUA	-0.804 ± 0.13	-0.629 ± 0.14
AUAGAGCAAUAUUACGUUUG	-1.43 ± 0.11	-2 ± 0.21

Sequence	self-splicing fitness (ln) (30 °C)	self-splicing fitness (ln) (37 °C)
AUAUAGCAAUAUUACGAACC	-1 ± 0.27	0.205 ± 0.24
AUAUAGCAAUAUUACGAAGA	-2.16 ± 0.4	-1.98 ± 0.47
AUAUAGCAAUAUUACGACAA	-0.546 ± 0.21	0.567 ± 0.18
AUAUAGCAAUAUUACGACCG	-1.62 ± 0.22	0.433 ± 0.41
AUAUAGCAAUAUUACGAGAA	-1.72 ± 0.34	-0.73 ± 0.36
AUAUAGCAAUAUUACGAGCC	-2.89 ± 0.32	-2.08 ± 0.37
AUAUAGCAAUAUUACGAUAG	-2.39 ± 0.22	-1.51 ± 0.24
AUAUAGCAAUAUUACGAUUC	-1.29 ± 0.19	-0.0451 ± 0.23
AUAUAGCAAUAUUACGCACC	-0.862 ± 0.2	-0.94 ± 0.18
AUAUAGCAAUAUUACGCGCU	0.0604 ± 0.24	-0.878 ± 0.38
AUAUAGCAAUAUUACGCGGA	-1.65 ± 0.26	-1.67 ± 0.17
AUAUAGCAAUAUUACGCUAU	-2.98 ± 0.27	-0.715 ± 0.24
AUAUAGCAAUAUUACGCUGA	-1.3 ± 0.2	-1.15 ± 0.24
AUAUAGCAAUAUUACGGAUA	-2.76 ± 0.31	-1.63 ± 0.3
AUAUAGCAAUAUUACGGAUC	-1.55 ± 0.2	0.109 ± 0.26
AUAUAGCAAUAUUACGGCCU	-0.457 ± 0.22	-1.58 ± 0.39
AUAUAGCAAUAUUACGGGCU	-2.22 ± 0.17	-1.6 ± 0.21
AUAUAGCAAUAUUACGGGGU	-2.23 ± 0.18	-2.25 ± 0.29
AUAUAGCAAUAUUACGGGUA	-2.09 ± 0.25	-0.788 ± 0.19
AUAUAGCAAUAUUACGUAAG	-1.61 ± 0.14	-0.705 ± 0.19
AUAUAGCAAUAUUACGUACC	-1.41 ± 0.2	-0.927 ± 0.28

Reference: the supplement of paper PMC7877785
